Substitutions are numbered along the chain they refer to. Numbers in names are those of the source. Values belong to the binder of their own block, whether it stands above or below them.
Legend:
[1] = biological target: T1, human CEACAM5 (carcinoembryonic antigen, CEA) on cells (human, UniProt P06731 35-685); test: flow cytometry, MKN-45 cells, goat F(ab')2 anti-human Fcγ-PE, gMFI
T1 construct: endogenous on MKN45 gastric adenocarcinoma cells; full-length cDNA stably transfected in the CHO-K1 clones; also called huCEACAM5; MKN45 cells
T1 sequence: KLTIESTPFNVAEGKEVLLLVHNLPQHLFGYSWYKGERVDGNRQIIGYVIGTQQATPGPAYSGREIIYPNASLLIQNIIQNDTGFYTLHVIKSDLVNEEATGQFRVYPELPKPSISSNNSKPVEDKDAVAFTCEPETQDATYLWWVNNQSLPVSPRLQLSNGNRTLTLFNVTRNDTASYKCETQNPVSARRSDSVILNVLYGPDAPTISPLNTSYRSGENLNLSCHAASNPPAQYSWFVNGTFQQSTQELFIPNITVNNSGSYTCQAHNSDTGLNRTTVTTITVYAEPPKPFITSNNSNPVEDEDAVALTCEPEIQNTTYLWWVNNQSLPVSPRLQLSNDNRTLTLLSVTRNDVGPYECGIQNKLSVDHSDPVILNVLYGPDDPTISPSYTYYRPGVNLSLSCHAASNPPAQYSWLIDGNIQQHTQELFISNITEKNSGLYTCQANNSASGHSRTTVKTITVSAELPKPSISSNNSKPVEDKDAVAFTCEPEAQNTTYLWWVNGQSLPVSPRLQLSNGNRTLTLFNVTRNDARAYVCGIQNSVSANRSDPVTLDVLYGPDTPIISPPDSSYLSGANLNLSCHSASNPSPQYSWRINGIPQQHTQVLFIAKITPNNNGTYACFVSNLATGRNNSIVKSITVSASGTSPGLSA

[2] = biological target: T1, human CEACAM5 (carcinoembryonic …); test: flow cytometry, MKN45 cells; parameters: AUC: unit not given beside the values
hu N(A2-B2)A-avi-His = biological target: T2, hu N(A2-B2)A-avi-His (human, biotin on the avi tag where used biotinylated); test: SPR (Biacore T200), antigen on CM5 chip, Fab as analyte
T2 construct: chimeric soluble antigen; also called hu N(A2-B2)A-avi-His B; human CEA (A2 domain)
T2 chain: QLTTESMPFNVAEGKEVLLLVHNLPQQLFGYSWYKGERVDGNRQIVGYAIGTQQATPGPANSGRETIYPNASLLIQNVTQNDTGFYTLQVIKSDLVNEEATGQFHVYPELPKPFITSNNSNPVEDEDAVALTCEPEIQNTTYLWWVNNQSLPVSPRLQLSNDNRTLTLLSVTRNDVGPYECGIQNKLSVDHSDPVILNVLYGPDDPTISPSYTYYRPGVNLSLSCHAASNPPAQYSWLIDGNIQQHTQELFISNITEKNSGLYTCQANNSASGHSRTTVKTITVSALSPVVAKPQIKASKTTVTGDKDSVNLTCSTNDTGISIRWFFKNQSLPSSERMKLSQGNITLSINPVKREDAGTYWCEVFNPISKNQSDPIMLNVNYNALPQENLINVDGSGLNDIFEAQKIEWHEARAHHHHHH
From the text: Data were double-referenced against the unimmobilized flow cell 1 and a zero concentration of the analyte. The sensorgrams of the analytes were fitted to a simple 1:1 Langmuir interaction model.

binding result [1]: no binding (tested: about 300 nM) | AUC [2]: 757
B1: P1AE3113 (antibody, IgG1, V domains shown)
VH: QVQLVQSGAEVKKPGASVKVSCKASGFNIKDSYMHWVRQAPGQGLEWMGWIDPENGDTEYAPKFQGRVTMTTDTSISTAYMELSRLRSDDTAVYYCNEGTPTGPYYFDYWGQGTLVTVSS
VL: EIQMTQSPSSLSASVGDRVTITCRASQSISSYMHWYQQKPGKAPKLLIYSTSNLASGVPSRFSGSGSGTDFTLTISSLQPEDFATYYCQQRSSYPLTFGGGTKLEIK
notes: huIgG1 P329G LALA; also called MFE-H24 / MFE-L26

binding result [1]: no binding (tested: about 300 nM) | AUC [2]: 2090
B2: P1AE3108 (antibody, IgG1, V domains shown)
VH: B1 VH with A16S, M70I, T74E, I76T, R85S, D89E
VL: B1 VL
notes: huIgG1 P329G LALA; also called MFE-H29 / MFE-L26

binding result [1]: no binding (tested: about 300 nM) | AUC [2]: 422
B3: P1AE3122 (antibody, IgG1, V domains shown)
VH: B1 VH with N97A, E98R
VL: DIQMTQSPSSLSASVGDRVTITCRASSSVSYMHWYQQKPGKAPKLLIYSTSNLASGVPSRFSGSGSGTDFTLTISSLQPEDFATYYCQQRSSYPLTFGGGTKLEIK
notes: huIgG1 P329G LALA; also called MFE-H27 / MFE-L24

binding result [1]: no binding (tested: about 300 nM) | AUC [2]: 578
B4: P1AE3111 (antibody, IgG1, V domains shown)
VH: B1 VH with D57G, E59N, P62Q
VL: B1 VL
notes: huIgG1 P329G LALA; also called MFE-H26 / MFE-L26

binding result [1]: no binding (tested: about 300 nM) | AUC [2]: 1190
B5: P1AE3098 (antibody, IgG1, V domains shown)
VH: B1 VH with N97A, E98R
VL: B3 VL with D1E, S30P, Y35L, L77V
notes: huIgG1 P329G LALA; also called MFE-H27 / MFE-L28

binding result [1]: no binding (tested: about 300 nM) | AUC [2]: 559
B6: P1AE3118 (antibody, IgG1, V domains shown)
VH: B1 VH with F27Y, N28T, I29F
VL: B3 VL with D1E
notes: huIgG1 P329G LALA; also called MFE-H25 / MFE-L25

binding result [1]: no binding (tested: about 300 nM) | AUC [2]: 1090
B7: P1AE3123 (antibody, IgG1, V domains shown)
VH: B1 VH with D57G, E59N, P62Q
VL: B3 VL
notes: huIgG1 P329G LALA; also called MFE-H26 / MFE-L24

binding result [1]: no binding (tested: about 300 nM) | AUC [2]: 847
B8: P1AE3124 (antibody, IgG1, V domains shown)
VH: B1 VH with F27Y, N28T, I29F
VL: B3 VL
notes: huIgG1 P329G LALA; also called MFE-H25 / MFE-L24

AUC [2]: 10300 | EC50 [2]: 41.9 nM
B9: P1AE3119 (antibody, IgG1, V domains shown)
VH: B1 VH
VL: B3 VL with D1E
notes: huIgG1 P329G LALA; also called MFE-H24 / MFE-L25

AUC [2]: 17500 | EC50 [2]: 17.1 nM
B10: P1AE3121 (antibody, IgG1, V domains shown)
VH: B1 VH with T72R
VL: B3 VL
notes: huIgG1 P329G LALA; also called MFE-H28 / MFE-L24

binding result [1]: no binding (tested: about 300 nM) | AUC [2]: 695
B11: P1AE3109 (antibody, IgG1, V domains shown)
VH: B1 VH with T72R
VL: B1 VL
notes: huIgG1 P329G LALA; also called MFE-H28 / MFE-L26

binding result [1]: no binding (tested: about 300 nM) | AUC [2]: 482
B12: P1AE3092 (antibody, IgG1, V domains shown)
VH: B1 VH with N97A, E98R
VL: B3 VL with D1E, S30P, Y35L, N52S, A54Q, L77V
notes: huIgG1 P329G LALA; also called MFE-H27 / MFE-L29

AUC [2]: 10200 | EC50 [2]: 20.7 nM
B13: P1AE3115 (antibody, IgG1, V domains shown)
VH: B1 VH with T72R
VL: B3 VL with D1E
notes: huIgG1 P329G LALA; also called MFE-H28 / MFE-L25

AUC [2]: 24200 | EC50 [2]: 12.4 nM
B14: P1AE3120 (antibody, IgG1, V domains shown)
VH: B1 VH with A16S, M70I, T74E, I76T, R85S, D89E
VL: B3 VL
notes: huIgG1 P329G LALA; also called MFE-H29 / MFE-L24

binding result [1]: no binding (tested: about 300 nM) | AUC [2]: 414
B15: P1AE3104 (antibody, IgG1, V domains shown)
VH: B1 VH with N97A, E98R
VL: B3 VL with D1E, S30P, L77V
notes: huIgG1 P329G LALA; also called MFE-H27 / MFE-L27

binding result [1]: no binding (tested: about 300 nM) | AUC [2]: 443
B16: P1AE3116 (antibody, IgG1, V domains shown)
VH: B1 VH with N97A, E98R
VL: B3 VL with D1E
notes: huIgG1 P329G LALA; also called MFE-H27 / MFE-L25

binding result [1]: no binding (tested: about 300 nM) | AUC [2]: 547
B17: P1AE3110 (antibody, IgG1, V domains shown)
VH: B1 VH with N97A, E98R
VL: B1 VL
notes: huIgG1 P329G LALA; also called MFE-H27 / MFE-L26

binding result [1]: no binding (tested: about 300 nM) | AUC [2]: 551
B18: P1AE3112 (antibody, IgG1, V domains shown)
VH: B1 VH with F27Y, N28T, I29F
VL: B1 VL
notes: huIgG1 P329G LALA; also called MFE-H25 / MFE-L26

binding result [1]: no binding (tested: about 300 nM) | AUC [2]: 1180
B19: P1AE3117 (antibody, IgG1, V domains shown)
VH: B1 VH with D57G, E59N, P62Q
VL: B3 VL with D1E
notes: huIgG1 P329G LALA; also called MFE-H26 / MFE-L25

binding result [1]: no binding (tested: about 300 nM) | AUC [2]: 1130
B20: P1AE3106 (antibody, IgG1, V domains shown)
VH: B1 VH with F27Y, N28T, I29F
VL: B3 VL with D1E, S30P, L77V
notes: huIgG1 P329G LALA; also called MFE-H25 / MFE-L27

Kd (hu N(A2-B2)A-avi-His): 1.47 nM
B21: P1AE4138 (Fab, V domains shown)
VH: EVQLLESGGGLVQPGGSLRLSCAASGFTFTDYYMNWVRQAPGKGLEWLGFIGNKANGYTTEYSASVKGRFTISRDKSKNTLYLQMNSLRAEDTATYYCTRDRGLRFYFDYWGQGTTVTVSS
VL: EIVLTQSPATLSLSPGERATLSCRASSSVTYIHWYQQKPGQAPRSWIYATSNLASGIPARFSGSGSGTDFTLTISSLEPEDFAVYYCQHWSSKPPTFGQGTKLEIK
notes: Fab fragment; Ckappa light chain; also called Fab derived from P1AE2167

Kd (hu N(A2-B2)A-avi-His): 1.25 nM
B22: P1AE4136 (Fab, V domains shown)
VH: B21 VH
VL: B21 VL with E1Q, I2T, S45L, W46L
notes: Fab fragment; also called Fab derived from P1AE2165

Kd (hu N(A2-B2)A-avi-His): 11.3 nM
B23: P1AE4137 (Fab, V domains shown)
VH: B21 VH
VL: B21 VL with Q41S, A42S, R44K
notes: Fab fragment; also called Fab derived from P1AE2166

Kd (hu N(A2-B2)A-avi-His): 1.7 nM
B24: P1AE4135 (Fab, V domains shown)
VH: B21 VH
VL: B21 VL with E1Q, I2T, Q41S, A42S, R44K, F70Y
notes: Fab fragment; also called Fab derived from P1AE2164

Kd (hu N(A2-B2)A-avi-His): 7.58 nM
B25: P1AE4139 (Fab, V domains shown)
VH: B21 VH with L48V, K76N, T95V
VL: B21 VL with Q41S, A42S, R44K
notes: Fab fragment; also called Fab derived from P1AE2176

AUC [2]: 83500 | EC50 [2]: 9.36 nM
B26: P1AE0096-001 MFE23 huIgG1 PG LALA (parental) (antibody, V domains shown)
VH: QVKLQQSGAELVRSGTSVKLSCTASGFNIKDSYMHWLRQGPEQGLEWIGWIDPENGDTEYAPKFQGKATFTTDTSSNTAYLQLSSLTSEDTAVYYCNEGTPTGPYYFDYWGQGTTVTVSS
VL: ENVLTQSPAIMSASPGEKVTITCSASSSVSYMHWFQQKPGTSPKLWIYSTSNLASGVPARFSGSGSGTSYSLTISRMEAEDAATYYCQQRSSYPLTFGAGTKLELK
notes: murine variable domains on huIgG1 P329G L234A L235A; also called parental murine MFE23 huIgG1 P329G LALA antibody

Kd (hu N(A2-B2)A-avi-His): 0.559 nM
B27: P1AE0289 CEA (A5B7) Fab (parental murine antibody) (Fab, V domains shown)
VH: EVKLVESGGGLVQPGGSLRLSCATSGFTFTDYYMNWVRQPPGKALEWLGFIGNKANGYTTEYSASVKGRFTISRDKSQSILYLQMNTLRAEDSATYYCTRDRGLRFYFDYWGQGTTLTVSS
VL: QTVLSQSPAILSASPGEKVTMTCRASSSVTYIHWYQQKPGSSPKSWIYATSNLASGVPARFSGSGSGTSYSLTISRVEAEDAATYYCQHWSSKPPTFGGGTKLEIK
notes: Fab fragment

— patent US20220267464A1 (Hoffmann-La Roche, published 2022)
